Measurements as given in FireProtDB (doi:10.1016/j.jmb.2005.09.091).

Settings: Kitasatospora aureofaciens, Thermal, CD, whole UniProt chain shown

B1: Guanyl-specific ribonuclease Sa wild type, P05798 (protein)
chain: DVSGTVCLSALPPEATDTLNLIASDGPFPYSQDGVVFQNRESVLPTQSYGYYHEYTVITPGARTRGTRRIITGEATQEDYYTGDHYATFSLIDQTC
**Q.** For B1, which Tm (pH 3, Glycine 30 mM) is on record?
**A.** 39.9 °C

**Q.** And the “unfolding enthalpy (van 't Hoff)” value (pH 3, Glycine 30 mM)?
**A.** 81 kcal/mol

**Q.** And the Tm (pH 7, Mops 30 mM)?
**A.** 47.8 °C

**Q.** And the “unfolding enthalpy (van 't Hoff)” value (pH 7, Mops 30 mM)?
**A.** 91 kcal/mol

**Q.** And the Tm (pH 8.5, Mops 30 mM)?
**A.** 38.7 °C

**Q.** And the “unfolding enthalpy (van 't Hoff)” value (pH 8.5, Mops 30 mM)?
**A.** 84 kcal/mol
